Assay results published in patent US20180094075A1 (Pfizer, published 2018).

How the values were obtained:
[1] = target: human PTK7 expressed on cells (cancer cell lines with endogenous PTK7; HEK293T-PTK7 over-expressing cells) (human) (UniProt Q13308); assay: flow cytometry, KG1 cells, 10 µg/ml Ab
[2] = target: human PTK7 expressed on cells (cancer cell lines with endogenous PTK7; HEK293T-PTK7 over-expressing cells) (human) (UniProt Q13308); assay: flow cytometry, TF1a cells, 10 µg/ml Ab
[3] = target: human PTK7 expressed on cells (cancer cell lines with endogenous PTK7; HEK293T-PTK7 over-expressing cells) (human) (UniProt Q13308); assay: flow cytometry, H520 cells, 10 µg/ml Ab
[4] = target: human PTK7 expressed on cells (cancer cell lines with endogenous PTK7; HEK293T-PTK7 over-expressing cells) (human) (UniProt Q13308); assay: flow cytometry, H2110 cells, 10 µg/ml Ab
[5] = target: human PTK7 expressed on cells (cancer cell lines with endogenous PTK7; HEK293T-PTK7 over-expressing cells) (human) (UniProt Q13308); assay: flow cytometry, MV411 cells, 10 µg/ml Ab
[6] = target: human PTK7 expressed on cells (cancer cell lines with endogenous PTK7; HEK293T-PTK7 over-expressing cells) (human) (UniProt Q13308); assay: flow cytometry, RPMI8226 cells, 10 µg/ml Ab
[7] = target: human PTK7 expressed on cells (cancer cell lines with endogenous PTK7; HEK293T-PTK7 over-expressing cells) (human) (UniProt Q13308); assay: flow cytometry, Kasumi-1 cells, 10 µg/ml Ab
[8] = target: human PTK7 expressed on cells (cancer cell lines with endogenous PTK7; HEK293T-PTK7 over-expressing cells) (human) (UniProt Q13308); assay: flow cytometry, H69 cells, 10 µg/ml Ab
[9] = target: human PTK7 expressed on cells (cancer cell lines with endogenous PTK7; HEK293T-PTK7 over-expressing cells) (human) (UniProt Q13308); assay: flow cytometry, HCC38 cells, 10 µg/ml Ab
[10] = target: human PTK7 expressed on cells (cancer cell lines with endogenous PTK7; HEK293T-PTK7 over-expressing cells) (human) (UniProt Q13308); assay: flow cytometry, H661 cells, 10 µg/ml Ab
[11] = target: human PTK7 expressed on cells (cancer cell lines with endogenous PTK7; HEK293T-PTK7 over-expressing cells) (human) (UniProt Q13308); assay: flow cytometry, H526 cells, 10 µg/ml Ab
[12] = target: human PTK7 expressed on cells (cancer cell lines with endogenous PTK7; HEK293T-PTK7 over-expressing cells) (human) (UniProt Q13308); assay: flow cytometry, HCC1806 cells, 10 µg/ml Ab
[13] = target: human PTK7 expressed on cells (cancer cell lines with endogenous PTK7; HEK293T-PTK7 over-expressing cells) (human) (UniProt Q13308); assay: flow cytometry, MiaPaca cells, 10 µg/ml Ab
[14] = target: human PTK7 expressed on cells (cancer cell lines with endogenous PTK7; HEK293T-PTK7 over-expressing cells) (human) (UniProt Q13308); assay: flow cytometry, HL60 cells, 10 µg/ml Ab
[15] = target: human PTK7 expressed on cells (cancer cell lines with endogenous PTK7; HEK293T-PTK7 over-expressing cells) (human) (UniProt Q13308); assay: flow cytometry, H446 cells, 10 µg/ml Ab
[16] = target: human PTK7 expressed on cells (cancer cell lines with endogenous PTK7; HEK293T-PTK7 over-expressing cells) (human) (UniProt Q13308); assay: flow cytometry, Hs700T cells, 10 µg/ml Ab
[17] = target: human PTK7 expressed on cells (cancer cell lines with endogenous PTK7; HEK293T-PTK7 over-expressing cells) (human) (UniProt Q13308); assay: flow cytometry, MDAMB468 cells, 10 µg/ml Ab
[18] = target: human PTK7 expressed on cells (cancer cell lines with endogenous PTK7; HEK293T-PTK7 over-expressing cells) (human) (UniProt Q13308); assay: flow cytometry, SKBR3 cells, 10 µg/ml Ab
[19] = target: human PTK7 expressed on cells (cancer cell lines with endogenous PTK7; HEK293T-PTK7 over-expressing cells) (human) (UniProt Q13308); assay: flow cytometry, BxPC3 cells, 10 µg/ml Ab
[20] = target: human PTK7 expressed on cells (cancer cell lines with endogenous PTK7; HEK293T-PTK7 over-expressing cells) (human) (UniProt Q13308); assay: flow cytometry, DU4475 cells, 10 µg/ml Ab
[21] = target: human PTK7 expressed on cells (cancer cell lines with endogenous PTK7; HEK293T-PTK7 over-expressing cells) (human) (UniProt Q13308); assay: flow cytometry, NB4 cells, 10 µg/ml Ab
[22] = target: human PTK7 expressed on cells (cancer cell lines with endogenous PTK7; HEK293T-PTK7 over-expressing cells) (human) (UniProt Q13308); assay: flow cytometry, ASPC1 cells (negligible PTK7 expression by immunoblot), 10 µg/ml Ab
[23] = target: human PTK7 expressed on cells (cancer cell lines with endogenous PTK7; HEK293T-PTK7 over-expressing cells) (human) (UniProt Q13308); assay: flow cytometry, H596 cells, 10 µg/ml Ab
[24] = target: human PTK7 expressed on cells (cancer cell lines with endogenous PTK7; HEK293T-PTK7 over-expressing cells) (human) (UniProt Q13308); assay: flow cytometry, HCC70 cells, 10 µg/ml Ab
[25] = target: human PTK7 expressed on cells (cancer cell lines with endogenous PTK7; HEK293T-PTK7 over-expressing cells) (human) (UniProt Q13308); assay: flow cytometry, TF1 cells, 10 µg/ml Ab
[26] = target: human PTK7 expressed on cells (cancer cell lines with endogenous PTK7; HEK293T-PTK7 over-expressing cells) (human) (UniProt Q13308); assay: flow cytometry, U937 cells, 10 µg/ml Ab
[27] = target: human PTK7 expressed on cells (cancer cell lines with endogenous PTK7; HEK293T-PTK7 over-expressing cells) (human) (UniProt Q13308); assay: flow cytometry, HEL cells, 10 µg/ml Ab
[28] = target: human PTK7 expressed on cells (cancer cell lines with endogenous PTK7; HEK293T-PTK7 over-expressing cells) (human) (UniProt Q13308); assay: flow cytometry, HEL92.1 cells, 10 µg/ml Ab

Chain of human PTK7 expressed on cells (cancer cell lines with endogenous PTK7; HEK293T-PTK7 over-expressing cells) (human) (Q13308 31-1070 L93P limits assumed): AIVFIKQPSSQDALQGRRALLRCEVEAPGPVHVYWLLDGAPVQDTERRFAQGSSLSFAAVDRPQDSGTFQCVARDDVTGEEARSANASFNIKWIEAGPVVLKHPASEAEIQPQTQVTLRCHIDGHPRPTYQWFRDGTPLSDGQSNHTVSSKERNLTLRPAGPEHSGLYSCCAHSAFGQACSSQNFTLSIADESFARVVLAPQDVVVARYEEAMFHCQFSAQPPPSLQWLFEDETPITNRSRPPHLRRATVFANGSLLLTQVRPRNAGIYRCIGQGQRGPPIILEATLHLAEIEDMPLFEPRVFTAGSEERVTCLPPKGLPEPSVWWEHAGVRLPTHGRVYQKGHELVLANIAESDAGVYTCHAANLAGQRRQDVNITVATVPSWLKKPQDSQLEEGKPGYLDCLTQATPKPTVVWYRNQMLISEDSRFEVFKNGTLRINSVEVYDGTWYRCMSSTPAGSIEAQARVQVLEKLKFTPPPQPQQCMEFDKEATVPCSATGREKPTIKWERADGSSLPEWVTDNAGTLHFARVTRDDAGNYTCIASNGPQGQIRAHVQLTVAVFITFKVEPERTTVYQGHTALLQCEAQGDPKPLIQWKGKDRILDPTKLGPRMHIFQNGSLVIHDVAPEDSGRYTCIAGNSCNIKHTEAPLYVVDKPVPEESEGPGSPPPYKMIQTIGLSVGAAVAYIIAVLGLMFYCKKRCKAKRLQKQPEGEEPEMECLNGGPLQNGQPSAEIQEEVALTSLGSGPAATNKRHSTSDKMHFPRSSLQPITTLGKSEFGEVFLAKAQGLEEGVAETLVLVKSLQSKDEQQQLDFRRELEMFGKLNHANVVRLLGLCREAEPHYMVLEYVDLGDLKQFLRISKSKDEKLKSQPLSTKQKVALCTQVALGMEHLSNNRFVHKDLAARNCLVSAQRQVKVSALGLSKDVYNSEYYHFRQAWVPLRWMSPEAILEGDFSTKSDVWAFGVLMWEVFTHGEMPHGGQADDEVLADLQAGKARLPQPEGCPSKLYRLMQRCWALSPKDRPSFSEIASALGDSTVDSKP

Mean Fluorescent Intensity [1]: 5.2 | Mean Fluorescent Intensity [2]: 6.2 | Mean Fluorescent Intensity [3]: 4.8 | Mean Fluorescent Intensity [4]: 4.9 | Mean Fluorescent Intensity [5]: 7.7 | Mean Fluorescent Intensity [6]: 8.3 | Mean Fluorescent Intensity [7]: 5.3 | Mean Fluorescent Intensity [8]: 11.2 | Mean Fluorescent Intensity [9]: 7.2 | Mean Fluorescent Intensity [10]: 3.8 | Mean Fluorescent Intensity [11]: 12.2 | Mean Fluorescent Intensity [12]: 4.6 | Mean Fluorescent Intensity [13]: 3.5 | Mean Fluorescent Intensity [14]: 10.9 | Mean Fluorescent Intensity [15]: 7.1 | Mean Fluorescent Intensity [16]: 4.9 | Mean Fluorescent Intensity [17]: 12 | Mean Fluorescent Intensity [18]: 14.9 | Mean Fluorescent Intensity [19]: 4.6 | Mean Fluorescent Intensity [20]: 3.8 | Mean Fluorescent Intensity [21]: 6.8 | Mean Fluorescent Intensity [22]: 2.6 | Mean Fluorescent Intensity [23]: 21.4 | Mean Fluorescent Intensity [25]: 5.9 | Mean Fluorescent Intensity [26]: 5 | Mean Fluorescent Intensity [27]: 15.7 | Mean Fluorescent Intensity [28]: 7.7
Substance: Negative Control Ab (Table 8) (antibody)
Mean Fluorescent Intensity [24]: 9.4
